Results as given in patent publication US7407939B2, “Protein kinase inhibitors comprising ATP mimetics conjugated to peptides or peptidomimetics” (CureGenics Ltd., priority 2001, dated 2008).
Where two headings read alike, the source gives them in different places. *1 amine or outer side, *2 acyl side, *3 side chain or, on linkers, in order; H or OH if unused. Where a SMILES comes first, the peptide text is derived from it. Where no end group is shown, it is not given here. Side-chain parts run from the residue outwards. [ ]: non-standard residue; d: D form. The star is where a group is joined. X1 = 5‑aminoethylsulfonamide isoquinoline, O=S(=O)(NCCN*)c1cccc2cnccc12; Isoquinoline5sulfonyl = O=S(=O)(c1cccc2cnccc12)*; Ethylenediamine = C(CN[*:2])N[*:1]; hLeu = CC(C)CC[C@H](N)C(=O)O; Nle = CCCC[C@H](N)C(=O)O; Orn = NCCC[C@H](N)C(=O)O; Dab = NCC[C@H](N)C(=O)O; Nva = CCC[C@H](N)C(=O)O; Abu = CC[C@H](N)C(=O)O; Dap = NC[C@H](N)C(=O)O

Assays:
PKA = biological target: T1, PKA (Bos taurus, UniProt P00517); test: In vitro PKA kinase activity assay (kemptide / SPA beads); assay type: biochemical; parameters: % Inhibition PKA: concentration or dose not given beside the values; details: for PKA-kinase Assay 1, % inhibition of kinase activity / PKA-kinase Assay 2, % inhibition of kinase activity / inhibition at 1 µM: 1 μM compound concentration; for % Inhibition PKA: plate screening;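 as to all read-outs here: Cell-free assay of purified PKA catalytic subunit phosphorylating the 7-mer kemptide substrate, run in MOPS buffer with magnesium acetate and BSA, with blank wells lacking enzyme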
T1 construct: purchased Promega

PKB = biological target: T2, PKB (Homo sapiens, UniProt P31749); test: PKB in vitro kinase activity assay (soluble His-HA-PKB / SPA bead screening); assay type: biochemical; parameters: % Inhibition PKB I / % Inhibition PKB II: concentration or dose not given beside the values; details: for PKB-kinase (spa) Assay 1, % inhibition of kinase activity / PKB-kinase (spa) Assay 2, % inhibition of kinase activity / inhibition at 1 µM: 1 μM compound concentration
T2 construct: His; HA; made in house

[1] = Table 10, accurate IC50 curve, peptide moiety alone, read-out: IC50 μM PKA
[2] = Table 10, accurate IC50 curve, peptide moiety alone, read-out: IC50 μM PKB
[3] = plate screening, peptide moiety alone
[4] = Assay 1, read-out: PKA-kinase Assay 1, % inhibition of kinase activity
[5] = Assay 2, read-out: PKA-kinase Assay 2, % inhibition of kinase activity
[6] = Table 1, most preferred compounds, read-out: IC50 PKA
[7] = Assay 1, read-out: PKB-kinase (spa) Assay 1, % inhibition of kinase activity
[8] = Assay 2, read-out: PKB-kinase (spa) Assay 2, % inhibition of kinase activity
[9] = Table 1, most preferred compounds, read-out: IC50 PKB

T2 sequence (P31749 whole entry, species assumed): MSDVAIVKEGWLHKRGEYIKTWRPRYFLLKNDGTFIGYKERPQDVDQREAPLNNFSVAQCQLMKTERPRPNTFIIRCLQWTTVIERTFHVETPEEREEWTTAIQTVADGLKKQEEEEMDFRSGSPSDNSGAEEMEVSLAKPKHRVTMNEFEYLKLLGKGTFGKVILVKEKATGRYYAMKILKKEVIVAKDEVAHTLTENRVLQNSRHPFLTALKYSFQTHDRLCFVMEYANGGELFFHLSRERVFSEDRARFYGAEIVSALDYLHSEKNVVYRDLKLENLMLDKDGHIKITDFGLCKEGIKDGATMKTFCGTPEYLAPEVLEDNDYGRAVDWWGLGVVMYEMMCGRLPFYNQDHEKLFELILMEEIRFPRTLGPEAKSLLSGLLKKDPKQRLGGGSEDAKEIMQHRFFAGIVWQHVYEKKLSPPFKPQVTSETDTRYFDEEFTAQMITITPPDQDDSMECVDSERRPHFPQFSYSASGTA

Row | Compound | PKA-kinase Assay 1, % inhibition of kinase activity (PKA; Assay 1) [%] | PKA-kinase Assay 2, % inhibition of kinase activity (PKA; Assay 2) [%] | PKB-kinase (spa) Assay 1, % inhibition of kinase activity (PKB; Assay 1) [%] | PKB-kinase (spa) Assay 2, % inhibition of kinase activity (PKB; Assay 2) [%] | other results
1 | 60020-37: Arg-Pro-Arg-Dap-Glu(Gly-5-aminoethylsulfonamide isoquinoline)-Ala-Phe (RPR[Dap]E([Gly-X1])AF) | 98 | 99 | 53 | 44 | 
2 | 60020-43: Arg-Pro-Arg-Orn-Glu(Gly-5-aminoethylsulfonamide isoquinoline)-Orn-Phe (RPR[Orn]E([Gly-X1])[Orn]F) | 96 | 96 | 48 | 62 | 
3 | 60020-44: Arg-Pro-Arg-Orn-Glu(Gly-5-aminoethylsulfonamide isoquinoline)-Orn-Hol (RPR[Orn]E([Gly-X1])[Orn][hLeu]) | 95 | 95 | 54 | 67 | 
4 | 60020-49: Arg-Pro-Arg-Abu-Glu(Gly-5-aminoethylsulfonamide isoquinoline)-Dab-Phe (RPR[Abu]E([Gly-X1])[Dab]F) | 95 | 95 | 66 | 66 | 
5 | 60020-60: Arg-Pro-Arg-Nle-Glu(Gly-5-aminoethylsulfonamide isoquinoline)-Orn-Hol (RPR[Nle]E([Gly-X1])[Orn][hLeu]) | 87 | 89 | 59 | 70 | 
6 | CCC[C@H](NC(=O)[C@H](CCCNC(=N)N)NC(=O)[C@@H]1CCCN1C(=O)[C@@H](N)CCCNC(=N)N)C(=O)N[C@@H](CO)C(=O)N[C@@H](C)C(=O)N[C@@H](Cc1ccccc1)C(N)=O [60002-38] (H-RPR[Nva]SAF-NH2; N-terminus and C-terminus assumed) |  |  |  |  | IC50 (PKA; [1]): 80 µM; % Inhibition PKA (PKA; peptide moiety alone): −2%; IC50 (PKB; [2]): 18 µM; % Inhibition PKB I (PKB; [3]): 43%
7 | CCC[C@H](NC(=O)[C@H](CCCNC(=N)N)NC(=O)[C@@H]1CCCN1C(=O)[C@@H](N)CCCNC(=N)N)C(=O)NCC(=O)N[C@@H](C)C(=O)N[C@@H](CCC(C)C)C(N)=O [60006-18A] (H-RPR[Nva]GA[hLeu]-NH2; N-terminus and C-terminus assumed) |  |  |  |  | IC50 (PKA; [1]): > 100 µM; % Inhibition PKA (PKA; peptide moiety alone): 11%; IC50 (PKB; [2]): 9.45 µM; % Inhibition PKB I (PKB; [3]): 47%; % Inhibition PKB II (PKB; plate screening, peptide moiety alone, PKB II): 52%
8 | CC(C)CC[C@H](NC(=O)[C@H](CCN)NC(=O)[C@H](CCC(=O)NCC(=O)NCCNS(=O)(=O)c1cccc2cnccc12)NC(=O)[C@H](CCCN)NC(=O)[C@H](CCCNC(=N)N)NC(=O)[C@@H]1CCCN1C(=O)[C@@H](N)CCCNC(=N)N)C(N)=O [60020-42, Arg-Pro-Arg-Orn-Glu-(Gly-5-aminoethylsulfonamide)-Dab-Hol] (H-RPR[Orn]E([Gly-Ethylenediamine-Isoquinoline5sulfonyl])[Dab][hLeu]-NH2) |  |  |  |  | inhibition at 1 µM (PKA; [4]): 99%; inhibition at 1 µM (PKA; [5]): 99%; IC50 (PKA; [6]): 0.05 µM; inhibition at 1 µM (PKB; [7]): 80%; inhibition at 1 µM (PKB; [8]): 86%; IC50 (PKB; [9]): 0.11 µM
9 | CCCC[C@H](NC(=O)[C@H](CCCNC(=N)N)NC(=O)[C@@H]1CCCN1C(=O)[C@@H](N)CCCNC(=N)N)C(=O)N[C@@H](CCC(=O)NCC(=O)NCCNS(=O)(=O)c1cccc2cnccc12)C(=O)N[C@@H](CCN)C(=O)N[C@@H](Cc1ccccc1)C(N)=O [60020-57, Arg-Pro-Arg-Nle-Glu-(Gly-5-aminoethylsulfonamide)-Dab-Phe] (H-RPR[Nle]E([Gly-Ethylenediamine-Isoquinoline5sulfonyl])[Dab]F-NH2) |  |  |  |  | inhibition at 1 µM (PKA; [4]): 95%; inhibition at 1 µM (PKA; [5]): 96%; IC50 (PKA; [6]): 0.21 µM; inhibition at 1 µM (PKB; [7]): 92%; inhibition at 1 µM (PKB; [8]): 93%; IC50 (PKB; [9]): 0.07 µM
10 | CCCC[C@H](NC(=O)[C@H](CCCNC(=N)N)NC(=O)[C@@H]1CCCN1C(=O)[C@@H](N)CCCNC(=N)N)C(=O)N[C@@H](CCC(=O)NCC(=O)NCCNS(=O)(=O)c1cccc2cnccc12)C(=O)N[C@@H](CCN)C(=O)N[C@@H](CCC(C)C)C(N)=O [60020-58, Arg-Pro-Arg-Nle-Glu-(Gly-5-aminoethylsulfonamide)-Dab-Hol] (H-RPR[Nle]E([Gly-Ethylenediamine-Isoquinoline5sulfonyl])[Dab][hLeu]-NH2) |  |  |  |  | inhibition at 1 µM (PKA; [4]): 98%; inhibition at 1 µM (PKA; [5]): 99%; IC50 (PKA; [6]): 0.05 µM; inhibition at 1 µM (PKB; [7]): 89%; inhibition at 1 µM (PKB; [8]): 93%; IC50 (PKB; [9]): 0.12 µM
11 | CCCC[C@H](NC(=O)[C@H](CCCNC(=N)N)NC(=O)[C@@H]1CCCN1C(=O)[C@@H](N)CCCNC(=N)N)C(=O)N[C@@H](CCC(=O)NCC(=O)NCCNS(=O)(=O)c1cccc2cnccc12)C(=O)N[C@@H](CCCN)C(=O)N[C@@H](Cc1ccccc1)C(N)=O [60020-59] (H-RPR[Nle]E([Gly-Ethylenediamine-Isoquinoline5sulfonyl])[Orn]F-NH2; N-terminus assumed) |  |  |  |  | inhibition at 1 µM (PKA; [4]): 92%; inhibition at 1 µM (PKA; [5]): 93%; IC50 (PKA; Table 6, most active compounds from plate TY-60020, read-out: IC50 PKA): 0.2 µM; inhibition at 1 µM (PKB; [7]): 62%; inhibition at 1 µM (PKB; [8]): 75%; IC50 (PKB; Table 6, most active compounds from plate TY-60020, read-out: IC50 PKB): 0.3 µM

More lines, main results first:

Row | PKA-kinase Assay 1, % inhibition of kinase activity (PKA; Assay 1) [%] | PKA-kinase Assay 2, % inhibition of kinase activity (PKA; Assay 2) [%] | PKB-kinase (spa) Assay 1, % inhibition of kinase activity (PKB; Assay 1) [%] | PKB-kinase (spa) Assay 2, % inhibition of kinase activity (PKB; Assay 2) [%] | Compound | other results
12 | 93 | 94 | 69 | 71 | 60020-36: Arg-Pro-Arg-Dap-Glu(Gly-5-aminoethylsulfonamide isoquinoline)-Orn-Hol (RPR[Dap]E([Gly-X1])[Orn][hLeu]) | 
13 | 98 | 99 | 49 | 49 | 60020-38: Arg-Pro-Arg-Dap-Glu(Gly-5-aminoethylsulfonamide isoquinoline)-Ala-Hol (RPR[Dap]E([Gly-X1])A[hLeu]) | 
14 | 97 | 97 | 60 | 54 | 60020-50: Arg-Pro-Arg-Abu-Glu(Gly-5-aminoethylsulfonamide isoquinoline)-Dab-Hol (RPR[Abu]E([Gly-X1])[Dab][hLeu]) | 
15 | 94 | 95 | 47 | 37 | 60020-51: Arg-Pro-Arg-Abu-Glu(Gly-5-aminoethylsulfonamide isoquinoline)-Orn-Phe (RPR[Abu]E([Gly-X1])[Orn]F) | 
16 | 92 | 92 | 56 | 53 | 60020-52: Arg-Pro-Arg-Abu-Glu(Gly-5-aminoethylsulfonamide isoquinoline)-Orn-Hol (RPR[Abu]E([Gly-X1])[Orn][hLeu]) | 
